# Data from US20260049140A1 (JANUX THERAPEUTICS, published 2026).
# Read-outs that look alike come from different tables or passages of the source. Ends that are not written are not given here.
# T1: TROP2 (human, UniProt P09758 27-274, limits assumed, biotinylated (site not stated))
# T1 construct: also called TROP2-biotin; tumor-associated calcium signal transducer 2
# T1 sequence (looked up): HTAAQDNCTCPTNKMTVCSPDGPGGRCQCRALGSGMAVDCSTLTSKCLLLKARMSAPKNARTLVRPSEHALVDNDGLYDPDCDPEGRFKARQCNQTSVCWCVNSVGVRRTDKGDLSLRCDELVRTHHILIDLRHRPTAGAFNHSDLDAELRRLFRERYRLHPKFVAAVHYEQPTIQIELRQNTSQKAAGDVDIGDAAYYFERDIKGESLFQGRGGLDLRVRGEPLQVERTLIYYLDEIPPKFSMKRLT
# T2: human TROP2-biotin (human, UniProt P09758 27-274, limits assumed, biotinylated (site not stated))
# T2 construct: also called hTROP2-Biotin; Biotinylated TROP2
# T2 sequence (looked up): T1 sequence (looked up)
# T3: Cyno CD3 (Antigen was biotinylated for capture on the plate (per card); site of biotin and any vendor tag not stated in the passages seen.)
# T3 construct: also called cynomolgus CD3
# T3 chain: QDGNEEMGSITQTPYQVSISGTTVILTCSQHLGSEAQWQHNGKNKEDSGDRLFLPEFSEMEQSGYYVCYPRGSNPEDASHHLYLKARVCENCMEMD
# B1: Peptide-5 (peptide)
# peptide: SECLVDLQSDPCYW
# modifications: cysteine pairing not given here; also: biotinylated when captured in binding ELISA
# notes: also called 1454
# B2: Peptide-4 (peptide)
# peptide: DWCWYSPDNDGLCD
# modifications: cysteine pairing not given here; also: biotinylated when captured in binding ELISA
# notes: also called 1446
# B3: TCE-30 (bispecific antibody)
# light: DIQLTQSPSSLSASVGDRVSITCKASQDVSIAVAWYQQKPGKAPKLLIYSASYRYTGVPDRFSGSGSGTDFTLTISSLQPEDFAVYYCQQHYITPLTFGAGTKVEIKRTVAAPSVFIFPPSDEQLKSGTASVVCLLNNFYPREAKVQWKVDNALQSGNSQESVTEQDSKDSTYSLSSTLTLSKADYEKHKVYACEVTHQGLSSPVTKSFNRGEC
# heavy: not shown
# notes: anti-CD3 scFv H101A; anti-TROP2 Fab F108A
# B4: TCE-29 (bispecific antibody)
# light: B3 light
# heavy: not shown
# notes: anti-CD3 scFv wt; anti-TROP2 Fab F108A
# B5: TCE-31 (anti-CD3 scFv F104A; anti-TROP2 (F108A) HC) (bispecific antibody)
# light: B3 light
# heavy: not shown
# notes: scFv-Fab; the entry already carries the mutations
# B6: TCE-34 (anti-CD3 scFv, several mutations; anti-TROP2 (F108A) HC) (bispecific antibody)
# light: B3 light
# heavy: not shown
# notes: as for B5
# B7: TCE-26 (anti-CD3 scFv F240A; anti-TROP2 HC wt) (bispecific antibody)
# light: B3 light
# heavy: not shown
# notes: scFv-Fab; the entry already carries the mutation; also called 3098
# B8: TCE-36 (bispecific antibody)
# light chain (anti-TROP2 LC wt): B3 light
# heavy chain (anti-CD3 scFv H101A fused to anti-TROP2 D109A Fab HC): not shown
# notes: not in the list MOLECULES; also called TCE-36 (anti-CD3 scFv H101A; anti-TROP2 (D109A) HC)
# B9: TCE-32 (anti-CD3 scFv F240A; anti-TROP2 (F108A) HC) (bispecific antibody)
# light: B3 light
# heavy: not shown
# notes: as for B5
# B10: TCE-37 (bispecific antibody)
# light: B3 light
# heavy: not shown
# notes: anti-CD3 scFv F104A; anti-TROP2 Fab D109A
# B11: TCE-33 (anti-CD3 scFv, several mutations; anti-TROP2 (F108A) HC) (bispecific antibody)
# light: B3 light
# heavy: EVQLVESGGGLVQPGGSLKLSCAASGFTFNKYAMNWVRQASGKGLEWVGRIRSKYNNYATYYADSVKDRFTISRDDSKNTAYLQMNSLKTEDTAVYYCVRHGNFGNSYISYWAYWGQGTLVTVSSGGGGSGGGGSGGGGSQTVVTQEPSFSVSPGGTVTLTCRSSTGAVTSGNYANWVQQTPGQAPRGLIGGTKFLAPGVPDRFSGSILGNKAALTITGAQADDESDYYCVLWYSNRWVFGGGTKLTVLGGGGSQVQLQQSGSELKKPGASVKVSCKASGYTFTNYGMNWVKQAPGQGLKWMGWINTYTGEPTYTDDFKGRFAFSLDTSVSTAYLQISSLKADDTAVYFCARGGFGSSYWYADVWGQGSLVTVSSASTKGPSVFPLAPSSKSTSGGTAALGCLVKDYFPEPVTVSWNSGALTSGVHTFPAVLQSSGLYSLSSVVTVPSSSLGTQTYICNVNHKPSNTKVDKKVEPKSC
# notes: as for B5
# B12: TCE-31 (bispecific antibody)
# light: B3 light
# heavy: not shown
# notes: anti-CD3 scFv F104A; anti-TROP2 Fab F108A
# B13: TCE-32 (bispecific antibody)
# light: B3 light
# heavy: not shown
# notes: anti-CD3 scFv F240A; anti-TROP2 Fab F108A
# B14: TCE-38 (bispecific antibody)
# light chain (anti-TROP2 LC wt): B3 light
# heavy chain (anti-CD3 scFv F240A fused to anti-TROP2 D109A Fab HC): not shown
# notes: not in the list MOLECULES; also called anti-TROP2 (D109A) HC)
# B15: TCE-34 (bispecific antibody)
# light: B3 light
# heavy: not shown
# notes: anti-CD3 scFv N30Q, I109V, G172A, V231A; anti-TROP2 Fab F108A
# Experiments:
# [1] = target: T4, TCE-15; assay: competition ELISA, peptide titrated vs TCE binding to captured CD3
# T4 construct: anti-CD3 scFv W112A; anti-TROP2 Fab wt; also called 3087
# [2] = target: T5, TCE-6; assay: as above
# T5 construct: anti-CD3 scFv N103A; anti-TROP2 Fab wt; also called 3078
# [3] = target: T6, TCE-3; assay: as above
# T6 construct: anti-CD3 scFv R100A; anti-TROP2 Fab wt; also called 3075
# [4] = target: T7, TCE-1; assay: competition ELISA: peptide titrated and pre-incubated with a constant concentration of TCE-1; TCE-1 bound to plate-captured biotinylated CD3 is detected (blocked ligand: CD3)
# T7 construct: anti-CD3 scFv wt fused to anti-TROP2 Fab HC wt
# [5] = target: T8, TCE-4; assay: competition ELISA, peptide titrated vs TCE binding to captured CD3
# T8 construct: anti-CD3 scFv H101A; anti-TROP2 Fab wt; also called 3076
# [6] = target: T1, TROP2; assay: ELISA, biotinylated TROP2 captured on neutravidin coated plates, HRP secondary antibody, OD 450 nm
# [7] = target: T1, TROP2; assay: as above; remark: listed apart in the source
# [8] = target: T1, TROP2; assay: as above; remark: listed apart in the source
# [9] = target: T2, human TROP2-biotin; assay: ELISA, biotinylated TROP2 captured on neutravidin plate, TCE titrated
# [10] = target: T3, Cyno CD3; assay: Cyno CD3 binding ELISA, TCE titrated
# [11] = target: T9, human CD3ε-biotin (human, UniProt P07766 23-126, limits assumed, biotinylated (site not stated)); assay: Human CD3 binding ELISA, TCE titrated
# T9 construct: also called CD3E-bio; CD3E-biotin
# [12] = target: T9, human CD3ε-biotin; assay: ELISA, biotinylated CD3ε captured on neutravidin plate, TCE titrated
# [13] = target: T9, human CD3ε-biotin; assay: as above; remark: listed apart in the source
# [14] = target: T9, human CD3ε-biotin; assay: BLI (Octet), summary table
# [15] = target: T9, human CD3ε-biotin; assay: ELISA, biotinylated CD3ε on neutravidin plates
# [16] = target: T2, human TROP2-biotin; assay: ELISA, biotinylated TROP2 captured on neutravidin plate, TCE titrated; table row head prints EC50 without a unit, unit taken from the axis Log [TCE nM]
# [17] = target: T9, human CD3ε-biotin; assay: ELISA, biotinylated CD3ε captured on neutravidin plate, TCE titrated; table row head prints EC50 without a unit, unit taken from the axis Log [TCE nM]
# [18] = target: T10, CD3ε (human, UniProt P07766 23-126, limits assumed, biotinylated (site not stated)); assay: ELISA, biotinylated CD3 captured on neutravidin coated plates, HRP secondary antibody, OD 450 nm
# T10 construct: also called CD3-biotin; CD3E
# [19] = target: T9, human CD3ε-biotin; assay: BLI (Octet), human CD3-biotin 10 nM on sensor, 50 nM TCE
# [20] = target: T2, human TROP2-biotin; assay: BLI (Octet), human TROP2-biotin 10 nM on sensor, 50 nM TCE
# [21] = target: T1, TROP2; assay: ELISA, biotinylated TROP2 captured on neutravidin coated plates, HRP secondary antibody, OD 450 nm; remark: listed apart in the source
# [22] = target: T10, CD3ε; assay: ELISA, biotinylated CD3 captured on neutravidin coated plates, HRP secondary antibody, OD 450 nm; remark: listed apart in the source
# [23] = target: T10, CD3ε; assay: as above; remark: listed apart in the source
# [24] = target: B3; assay: competition ELISA, peptide titrated vs TCE binding to captured CD3
# [25] = target: B13; assay: as above
binder,measurement,setting,value
"QGCGTIADPEPHCW (cysteine pairing not given here; also: biotinylated when captured in ELISA, also called 1363) [Peptide-1]",IC50,[1],> 100000 nM
same,IC50,[2],> 100000 nM
same,IC50,[3],> 100000 nM
B1,IC50 (read off the curve),[4],~3000 nM
same,IC50,[5],> 100000 nM
same,IC50,[3],> 100000 nM
B2,IC50 (read off the curve),[4],~2000 nM
same,IC50,[1],> 100000 nM
same,IC50,[2],4590 nM
same,IC50,[5],> 100000 nM
B3,EC50 (read off the curve),[6],~2 nM
B4,EC50 (read off the curve),[7],~2 nM
same,EC50 (read off the curve),[8],~0.9 nM
B5,EC50,[9],1.02 nM
same,EC50,[10],0.671 nM
same,EC50,[11],0.761 nM
B6,EC50,[10],0.354 nM
same,EC50,[12],0.356 nM
same,EC50,[11],0.382 nM
same,EC50,[13],0.376 nM
B7,CD3 t1/2,[14],39 s
same,EC50,[15],0.6 nM
B8,EC50,[16],1.38 nM
same,EC50,[13],0.595 nM
B9,EC50,[17],0.938 nM
same,EC50,[10],0.482 nM
same,EC50,[11],0.531 nM
B10,EC50,[16],0.893 nM
same,EC50 (read off the curve),[18],~0.6 nM
same,EC50 (read off the curve),[6],~0.7 nM
B11,Kd,[19],0.467 nM
same,Kd,[20],1.22 nM
B12,EC50 (read off the curve),[21],~0.7 nM
B13,EC50 (read off the curve),[22],~0.6 nM
same,EC50 (read off the curve),[21],~0.7 nM
B14,EC50,[13],1.09 nM
B15,EC50 (read off the curve),[23],~0.6 nM
same,EC50 (read off the curve),[7],~2 nM
YLCGPDADETLACY (cysteine pairing not given here; also: biotinylated when captured in ELISA) [Peptide-12],IC50,[24],> 100000 nM
same,IC50,[25],> 100000 nM
